From publication PMC9472817, “Structural and functional characterisation of a stable, broad-specificity multimeric sialidase from the oral pathogen Tannerella forsythia” (Biochemical Journal, 2022)

Target: NanH sialidase of Tannerella forsythia (wild type) (Tannerella forsythia 92A.2)
Assay: SEC-MALS; NanH at 0.5 and 3.0 mg/ml on Superdex S200 10/300 in 50 mM sodium phosphate, 200 mM NaCl pH 7.4, ~20°C; self-association

Substance: NanH sialidase of Tannerella forsythia (wild type) (enzyme)
- percent of the protein as dimer: 90%
- stoichiometry N: 2
